Reference: patent US12274759B2, “Affibody proteins specific for B7-H3 (CD276)” (THE BOARD OF TRUSTEES OF THE LELAND STANFORD JUNIOR …, priority 2018, dated 2025)

Biological target: T1, recombinant soluble human B7-H3 ectodomain protein (Homo sapiens, UniProt Q5ZPR3)
T1 construct: incubated with 3 μM of recombinant soluble human B7-H3 ectodomain protein
T1 sequence (Q5ZPR3 29-466 limits assumed): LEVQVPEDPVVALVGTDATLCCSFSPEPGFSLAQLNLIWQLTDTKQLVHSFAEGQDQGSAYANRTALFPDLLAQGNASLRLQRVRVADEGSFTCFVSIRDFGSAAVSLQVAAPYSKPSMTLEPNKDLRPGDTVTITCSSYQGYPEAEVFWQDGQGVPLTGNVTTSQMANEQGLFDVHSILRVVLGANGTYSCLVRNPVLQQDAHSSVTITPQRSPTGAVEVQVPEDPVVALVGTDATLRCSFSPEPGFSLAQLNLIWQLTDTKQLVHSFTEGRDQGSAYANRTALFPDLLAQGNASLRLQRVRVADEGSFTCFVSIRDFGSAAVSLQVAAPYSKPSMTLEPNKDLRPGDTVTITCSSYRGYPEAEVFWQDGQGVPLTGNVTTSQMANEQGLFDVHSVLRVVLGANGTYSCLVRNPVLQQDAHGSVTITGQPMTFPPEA
Assay: Streptavidin bead binding to recombinant soluble human B7-H3 ectodomain by flow cytometry
Conditions: ligand immobilized to streptavidin magnetic beads; 3 μM recombinant soluble human B7-H3 ectodomain
Description: FIG. 9. Production and validation of ABYB7-H3.(A) Left panel: Commassie Blue staining of SDS-PAGE showing high purity and expected size (7,490 Da) of finalized ABYB7-H3 produced in E. Coli. Right panel: Mass spectrometric analysis of ABYB7-H3 showing a mass-to-charge peak (m/z=7,546) corresponding to ABY molecular weight. A doubly charged peak (m/z=3763) is also present. Amino acid sequence of ABYB7-H3 (SEQ ID NO:28) is shown on the bottom. (B) Flow cytometry of biotin-ABYB7-H3 conjugated streptavidin-microbeads complex showing binding to soluble recombinant B7-H3 (3 μM) as detected by APC conjugated anti-B7-H3 antibody. Unconjugated beads (negative control) and anti B7-H3 antibody (AB) conjugated beads (positive control) were also tested for binding to soluble B7-H3 antigen.
Production of ABYB7-H3. Development of a B7-H3-binding ligand from an ABY yeast display library is described in Example 1. […] ABYB7-H3 ligand was recombinantly expressed in E. coli, purified, and functionalized with 1:1 molar ratio of biotin. […] In order to confirm binding specificity of recombinantly produced ABYB7-H3 to its target, biotinylated-ABY was immobilized to streptavidin- magnetic beads and incubated with 3 μM of recombinant soluble human B7-H3 ectodomain protein.

B1: anti- B7-H3 antibody: biotinylated anti-B7-H3 antibody conjugated to beads as positive control (protein)
VHH: QVQLVESGGGLVQPGGSLRLSCAASGFTFSSYWMYWVRQTPGKGLEWVSTINRDGSATWYADSVKGRFTISRDNAKNTGYLQMNSLKPDDTAVYYCVSDPDNYSSDEMVPYWGQGTQVTVSS
- binding to soluble B7-H3: 81%
